# Test results taken from patent US20230029453A1 (Janssen / Centocor, published 2023).
# B1: Peptide 7, 9-mer HREKQLIAM derived from P22 (SEQ ID NO: 1003) (peptide)
# peptide: HREKQLIAM
# B2: Peptide 9, 9-mer KQLIAMDSA derived from P22 (SEQ ID NO: 1003) (peptide)
# peptide: KQLIAMDSA
# B3: Peptide 4, 9-mer SLYHREKQL derived from P22 (SEQ ID NO: 1003) (peptide)
# peptide: SLYHREKQL
# B4: Peptide 3, 9-mer SLIAMDSAI derived from FUS1 (SEQ ID NO: 1001) (peptide)
# peptide: SLIAMDSAI
# B5: Peptide 5, 9-mer LYHREKQLI derived from P22 (SEQ ID NO: 1003) (peptide)
# peptide: LYHREKQLI
# B6: Peptide 2, 9-mer IAMDSAITL derived from FUS1 (SEQ ID NO: 1001) (peptide)
# peptide: IAMDSAITL
# B7: Peptide 6, 9-mer YHREKQLIA derived from P22 (SEQ ID NO: 1003) (peptide)
# peptide: YHREKQLIA
# B8: Peptide 1, 9-mer AMDSAITLW derived from FUS1 (SEQ ID NO: 1001) (peptide)
# peptide: AMDSAITLW
# How the values were obtained:
# Assay in all cases: UV peptide exchange; HLA class I ELISA
# [1] = target: T1, HLA-A*01:01 (human, biotinylated heavy chain)
# T1 construct: Conditional HLA class I complex (heavy chain + B2M) first held by a UV-labile peptide; the tested peptide is exchanged in after UV cleavage
# Protocol: (§1) The UV control represented UV-irradiation of conditional HLA class I complex in the absence of a rescue peptide.
# (§2) The HLA class I ELISA is an enzyme immunoassay based on the detection of beta2-microglobulin (B2M) of (peptide-stabilized) HLA class I complexes. To this end streptavidin was bound onto polystyrene microtiter wells. […] Subsequently, horseradish peroxidase (HRP)-conjugated antibody to human B2M was added. […] In the latter case B2M was removed during the washing step. After removal of non-bound HRP conjugate by washing, a substrate solution was added to the wells. A coloured product formed in proportion to the amount of intact HLA complex present in the samples. After the reaction was terminated by the addition of a stop solution, absorbance was measured in a microtiter plate reader.
# [2] = target: T2, HLA-A*24:02 (human, biotinylated heavy chain)
# T2 construct: Conditional HLA class I complex as for m1
# Protocol: as §1, §2
# [3] = target: T3, HLA-B*08:01 (human, biotinylated heavy chain)
# T3 construct: Conditional HLA class I complex as for m1
# Protocol: as §1, §2
# [4] = target: T4, HLA-A*02:01 (human, biotinylated heavy chain);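 also: conditional HLA class I complexes UV-irradiated with peptide, captured on streptavidin wells, intact complex read as HRP anti-B2M absorbance, higher means more binding, control irradiated without rescue peptide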
# T4 construct: Conditional HLA class I complex as for m1
# Protocol: as §1, §2
# [5] = target: T5, HLA-B*27:05 (human, biotinylated heavy chain)
# T5 construct: Conditional HLA class I complex as for m1
# Protocol: as §2
# [6] = target: T6, HLA-B*07:02 (human, biotinylated heavy chain);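 also: ELISA detecting beta2-microglobulin of intact HLA class I complexes captured on streptavidin wells after UV-induced exchange, absorbance read-out, reference is UV-irradiated conditional complex lacking rescue peptide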
# T6 construct: Conditional HLA class I complex as for m1
# Protocol: as §1, §2
Binder,Average % [1] [%],Exch I (%) [1] [%],Exch II (%) [1] [%],Average % [2] [%],Exch I (%) [2] [%],Exch II (%) [2] [%],Average % [3] [%],Exch I (%) [3] [%],Exch II (%) [3] [%],Average % [4] [%],Exch I (%) [4] [%],Exch II (%) [4] [%],Average % [5] [%],Exch I (%) [5] [%],Exch II (%) [5] [%],Average % [6] [%],Exch I (%) [6] [%],Exch II (%) [6] [%]
B1,5.4,5.5,5.2,5.5,5.4,5.6,9.5,9.5,9.5,8.2,7.9,8.6,30.9,32.3,29.5,12.6,12.6,12.6
B2,6.3,6.3,6.3,5,4.6,5.3,7.7,7.1,8.3,7.2,6.9,7.6,10.8,11.8,9.8,10.3,10.5,10.1
B3,6.6,6.7,6.4,6.6,6.5,6.6,20.7,20.3,21.1,87,82.8,91.2,16.5,19,14,10.8,10.9,10.8
B4,6.9,6.9,6.9,5.5,5.3,5.7,7.3,7.5,7.1,58.5,57.3,59.7,6.3,7.1,5.5,11.1,10.9,11.3
B5,6,6.2,5.8,17.8,17.5,18.1,7.7,7.5,7.9,11.8,11.3,12.3,17.4,19.3,15.4,10.8,11.5,10
B6,6.9,6.7,7,7,6.7,7.3,7.9,7.6,8.1,85.8,81.1,90.5,9.3,10.1,8.5,67.1,68.7,65.4
B7,5.8,6.2,5.5,6.5,6.6,6.3,8.3,8.3,8.4,17.2,16.3,18.1,13.1,14.4,11.7,10.8,11.1,10.5
B8,4.6,4.7,4.6,5.5,5.1,6,7,6.6,7.3,8.6,8,9.2,9.8,10.3,9.3,9.7,10,9.4
